From patent publication US20240352084A1

Key:
Details in all cases: ligand
[1] = target: human IL-2Rα ectodomain (residues 1-217) with C-terminal biotin acceptor peptide and histidine tag, biotinylated (human) (UniProt P01589); assay: MST; pH 5
[2] = target: human IL-2Rα ectodomain (residues 1-217) with C-terminal biotin acceptor peptide and histidine tag, biotinylated (human) (UniProt P01589); assay: MST; pH 6
[3] = target: human IL-2Rα ectodomain (residues 1-217) with C-terminal biotin acceptor peptide and histidine tag, biotinylated (human) (UniProt P01589); assay: MST; pH 7

Sequence of UniProt P01589 (P01589 other isoform, or with tags, fused parts or gaps): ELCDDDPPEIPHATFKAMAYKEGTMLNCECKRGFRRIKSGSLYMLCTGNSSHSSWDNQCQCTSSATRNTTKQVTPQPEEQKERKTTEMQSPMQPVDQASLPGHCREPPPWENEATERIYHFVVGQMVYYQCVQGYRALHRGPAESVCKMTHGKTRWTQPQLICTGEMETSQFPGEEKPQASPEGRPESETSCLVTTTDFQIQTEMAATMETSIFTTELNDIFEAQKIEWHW

Substance “Human IL-2 wild-type (WT; residues 1-133), recombinant, C-terminal histidine tag (from UniProt P60568 21-150)” has a Kd [1] of 184 nM, a Kd [2] of 90 nM and a Kd [3] of 7 nM.
